B1: Notch2NRR (Notch2 NRR domain) (domain or fragment)
chain: ATCLSQYCADKARDGVCDEACNSHACQWDGGDCSLTMENPWANCSSPLPCWDYINNQCDELCNTVECLFDNFECQGNSKTCKYDKYCADHFKDNHCDQGCNSEECGWDGLDCAADQPENLAEGTLVIVVLMPPEQLLQDARSFLRALGTLLHTNLRIKRDSQGELMVYPYYGEKSAAMKKQRMTRRSLPGEQEQEVAGSKVFLEIDNRQCVQDSDHCFKNTDAAAALLASHAIQGTLSYPLVSVVSESLTPERTQ
modifications: biotin on the N-terminal Avi tag (enzymatic)
notes: also called NRR protein; not shown: Avi tag, N-terminal, kept

How the values were obtained:
[1] = biological target: T1, Notch2Long (Notch2 EGF6-EGF12) (human, UniProt Q04721 219-418, biotin on the N-terminal Avi tag (enzymatic)); assay: ELISA; conditions: one partner purified
T1 construct: also called N2L protein; hNotch2; not shown: Avi tag, N-terminal, kept
T1 sequence (looked up): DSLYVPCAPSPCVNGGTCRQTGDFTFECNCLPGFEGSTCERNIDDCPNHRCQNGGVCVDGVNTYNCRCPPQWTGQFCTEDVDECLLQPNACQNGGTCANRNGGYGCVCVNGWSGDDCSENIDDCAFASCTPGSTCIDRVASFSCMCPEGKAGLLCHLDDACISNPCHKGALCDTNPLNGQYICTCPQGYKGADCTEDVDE

[2] = biological target: T1, Notch2Long (Notch2 EGF6-EGF12); assay: SPR; conditions: both partners purified
HtrA1 = biological target: T2, HtrA1 (human, UniProt Q92743 23-480, biotin on lysines (Sulfo-NHS-LC-biotin) for panning and SPR); assay: SPR; conditions: both partners purified
T2 construct: also called HtrA1 FL; human full-length HtrA1

N2N-AVR-19 = biological target: T3, N2N-AVR-19; assay: SPR; conditions: both partners purified
T3 construct: AVR9 scaffold; source: synthetic peptide, folded in vitro

N2N-AVR-n6 = biological target: T4, N2N-AVR-n6; assay: SPR; conditions: both partners purified
T4 construct: AVR9 scaffold; source: synthetic peptide, folded in vitro

[3] = biological target: B1; assay: SPR; conditions: both partners purified
PCSK9 [4] = biological target: T5, PCSK9 (human, UniProt Q8NBP7 31-692, biotin on lysines (Sulfo-NHS-LC-biotin)); assay: SPR; conditions: both partners purified
T5 construct: also called PCSK9FL; hPCSK9 FL

[5] = biological target: T6, PCSK9ΔCRD (PCSK9 lacking the C-terminal Cys-rich domain CRD) (human, UniProt Q8NBP7 31-452, biotin on lysines (Sulfo-NHS-LC-biotin)); assay: ELISA; conditions: one partner purified
T6 construct: also called PCSK9DCRD; PCSK9dCRDTEV

Her3-Fc = Her3-Fc (UniProt P21860 20-643); assay: ELISA; conditions: one partner purified
Her3-Fc Avi-tag = Her3-Fc Avi-tag (UniProt P21860 20-643); assay: SPR; conditions: both partners purified
PCSK9 [6] = biological target: T5, PCSK9; assay: ELISA; conditions: one partner purified
[7] = biological target: T1, Notch2Long (Notch2 EGF6-EGF12); assay: SPR; conditions: both partners purified; remark: listed apart in the source

Her3-Fc, sequence (P21860 20-643): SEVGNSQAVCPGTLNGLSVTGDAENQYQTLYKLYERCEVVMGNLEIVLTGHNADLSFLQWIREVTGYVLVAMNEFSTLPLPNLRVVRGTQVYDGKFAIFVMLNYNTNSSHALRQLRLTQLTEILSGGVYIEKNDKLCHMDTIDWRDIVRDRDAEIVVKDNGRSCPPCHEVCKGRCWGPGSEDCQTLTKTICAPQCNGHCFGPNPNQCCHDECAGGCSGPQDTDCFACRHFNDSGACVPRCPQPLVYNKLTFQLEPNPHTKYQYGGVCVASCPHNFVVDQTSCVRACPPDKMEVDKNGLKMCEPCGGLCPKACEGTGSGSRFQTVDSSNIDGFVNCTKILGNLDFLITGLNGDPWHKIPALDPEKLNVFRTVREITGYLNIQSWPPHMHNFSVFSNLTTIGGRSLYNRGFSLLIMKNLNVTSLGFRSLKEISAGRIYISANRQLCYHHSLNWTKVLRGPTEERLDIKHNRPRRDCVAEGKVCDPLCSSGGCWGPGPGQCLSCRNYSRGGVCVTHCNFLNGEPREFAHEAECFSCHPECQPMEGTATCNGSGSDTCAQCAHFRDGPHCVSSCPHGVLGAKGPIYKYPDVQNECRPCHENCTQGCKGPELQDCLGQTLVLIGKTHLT
Her3-Fc Avi-tag, sequence (P21860 20-643): as above
T5 sequence (Q8NBP7 31-692): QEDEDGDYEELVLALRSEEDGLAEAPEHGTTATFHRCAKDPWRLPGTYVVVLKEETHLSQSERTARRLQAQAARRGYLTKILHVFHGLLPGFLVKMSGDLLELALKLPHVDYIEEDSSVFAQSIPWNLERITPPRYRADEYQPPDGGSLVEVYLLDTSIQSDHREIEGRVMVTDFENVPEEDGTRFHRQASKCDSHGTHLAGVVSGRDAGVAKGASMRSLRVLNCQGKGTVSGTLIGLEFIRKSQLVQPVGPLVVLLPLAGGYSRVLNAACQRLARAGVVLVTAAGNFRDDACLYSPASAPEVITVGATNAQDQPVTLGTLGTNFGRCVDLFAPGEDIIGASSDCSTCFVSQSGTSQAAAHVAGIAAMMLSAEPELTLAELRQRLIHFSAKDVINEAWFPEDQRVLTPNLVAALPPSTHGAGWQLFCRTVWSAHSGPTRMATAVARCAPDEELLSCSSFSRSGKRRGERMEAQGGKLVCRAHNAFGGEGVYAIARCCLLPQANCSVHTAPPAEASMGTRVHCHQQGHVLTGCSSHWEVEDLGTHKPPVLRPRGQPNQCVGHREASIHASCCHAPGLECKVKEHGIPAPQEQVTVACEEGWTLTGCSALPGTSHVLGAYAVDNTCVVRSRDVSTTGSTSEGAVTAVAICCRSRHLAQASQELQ
T2 sequence (Q92743 23-480): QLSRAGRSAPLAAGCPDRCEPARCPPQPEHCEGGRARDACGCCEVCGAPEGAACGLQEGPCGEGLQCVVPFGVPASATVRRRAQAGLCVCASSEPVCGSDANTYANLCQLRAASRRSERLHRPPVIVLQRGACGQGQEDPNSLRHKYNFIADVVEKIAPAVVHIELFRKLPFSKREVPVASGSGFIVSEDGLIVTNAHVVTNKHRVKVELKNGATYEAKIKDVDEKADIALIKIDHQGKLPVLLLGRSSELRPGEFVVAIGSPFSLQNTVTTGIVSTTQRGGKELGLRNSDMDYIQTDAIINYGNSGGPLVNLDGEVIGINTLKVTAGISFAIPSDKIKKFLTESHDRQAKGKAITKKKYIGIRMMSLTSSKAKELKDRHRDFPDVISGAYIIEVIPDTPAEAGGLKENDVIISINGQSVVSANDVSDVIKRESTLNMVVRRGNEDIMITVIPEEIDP
T6 sequence (Q8NBP7 31-452, stated change not applied): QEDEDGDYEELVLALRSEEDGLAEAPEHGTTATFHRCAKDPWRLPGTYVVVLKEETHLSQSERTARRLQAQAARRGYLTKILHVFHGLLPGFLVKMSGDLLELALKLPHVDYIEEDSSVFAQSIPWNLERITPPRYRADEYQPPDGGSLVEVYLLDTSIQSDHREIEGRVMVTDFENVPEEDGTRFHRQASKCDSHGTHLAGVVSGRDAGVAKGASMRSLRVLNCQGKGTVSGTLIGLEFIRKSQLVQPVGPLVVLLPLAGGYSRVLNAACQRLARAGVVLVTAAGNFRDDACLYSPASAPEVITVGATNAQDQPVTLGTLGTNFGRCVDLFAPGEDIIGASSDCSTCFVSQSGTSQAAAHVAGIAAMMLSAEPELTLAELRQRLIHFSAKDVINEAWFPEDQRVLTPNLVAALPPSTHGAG

Question: What does the source list for GCGWTLAHCKQDSDCLAGCVCQPRWVCG (designed binder) [N2L-EET-29 displayed on M13 phage]?
Answer: ELISA [1]: 0.6; s/n Ratio [1]: 4.4

Question: GCIRSHLWCPPSASCLAGCVCEVWIQCG (designed binder) [N2L.EET31.32.70] was tested. Which Kd [2] did it give?
Answer: The Kd was 1 µM.

Question: How did the Kd [2] turn out when GCIKSHLWCPRDSDCLAGCVCEVWIQCG (designed binder) [N2L.EET31.32.13] was run?
Answer: The Kd was 35 µM.

Question: ECKGKGAKCSIQWSVYPWKVCCTGSCRSGKC (designed binder, Conotoxin-MVIIA scaffold) [HtrA1_CnTx83] was tested. Which Kd (HtrA1) did it give?
Answer: Its Kd is 6.4 µM.

Question: What does the source list for B1?
Answer: Kd (N2N-AVR-19): 9.4 µM; Kd (N2N-AVR-n6): 0.8 µM

Question: How did the Kd [3] turn out when GCQQRRWGGWQQCKQDSDCLAGCVCGPNGFCG (designed binder) [N2N-EET-33] was run?
Answer: Its Kd is 55.6 µM.

Question: GCGQKRMGGWQWCKQDSDCLAGCVCGPNGFCG (designed binder) [N2N-EET-n13] was tested. Which Kd [3] did it give?
Answer: The Kd was 12 µM.

Question: Which Kd [3] does the source give for GCGQQRWGGWPLCKQDSDCLAGCVCGPNGFCG (designed binder) [N2N-EET-45] here?
Answer: The Kd was 55.9 µM.

Question: With WIPCISAALGCSCKNKVCYFLYQICGESCV (designed binder) [HtrA1_CirA38] as the binder, how does the Kd (HtrA1) read?
Answer: The Kd was 2.5 µM.

Question: With ECKGKGAKCSFMTRQGVQTWCCTGSCRSGKC (designed binder, Conotoxin-MVIIA scaffold) [PCSK9_CnTx2] as the binder, how does the Kd (PCSK9 [4]) read?
Answer: Its Kd is 2.8 µM.

Question: How did the ELISA [5] turn out when ECKGKGAKCSFMTRQGVQTWCCTGSCRSGKC (designed binder, Conotoxin-MVIIA scaffold) [PCSK9_CnTx2 displayed on M13 phage] was run?
Answer: The ELISA was 1.7.

Question: And the s/n Ratio [5]?
Answer: The s/n Ratio was 25.9.

Question: How did the Kd [2] turn out when GCIKSHLWCPKTSDCEAGCICEVWIQCG (designed binder) [N2L.EET31.43.24] was run?
Answer: The Kd was 3.5 µM.

B2: Her3-Fc_ChTx2 displayed on M13 phage (designed binder)
chain: VSCTTSKECWSVCQRLHNTSWLGSCMERFCKCVD
notes: Charybdotoxin scaffold; source: M13 phage from E. coli, culture supernatant
Question: B2 was tested. Which ELISA (Her3-Fc) did it give?
Answer: The ELISA was 1.6.

Question: And the s/n Ratio (Her3-Fc)?
Answer: The s/n Ratio was 24.3.

Question: VSCTTSKECWSVCQRLHNTSWLGSCMERFCKCVD (designed binder, Charybdotoxin scaffold) [Her3-Fc_ChTx2] was tested. Which Kd (Her3-Fc Avi-tag) did it give?
Answer: Its Kd is 1.5 µM.

Question: For GCGWTLRHCKQDSDCLAGCVCRPIWYCG (designed binder) [N2L.EET03.10], which Kd [2] is on record?
Answer: The Kd was 4.5 µM.

Question: GPTQSKYGMCGGIGYSGPTVCASGTTCQVLDPYTSQCLPGAS (designed binder) [PCSK9FL_CBD2] was tested. Which Kd (PCSK9 [4]) did it give?
Answer: The Kd was 3.6 µM.

Question: GPTQSKYGMCGGIGYSGPTVCASGTTCQVLDPYTSQCLPGAS (designed binder) [PCSK9FL_CBD2 displayed on M13 phage] was tested. Which ELISA (PCSK9 [6]) did it give?
Answer: The ELISA was 1.9.

Question: And the s/n Ratio (PCSK9 [6])?
Answer: Its s/n Ratio is 26.8.

Question: How did the Kd (Her3-Fc Avi-tag) turn out when GPTQSWQGRCGGIGYSGPTVCASGTTCQVLTPYWSECLPGAS (designed binder, also called Her3_CBD1) [Her3-Fc_CBD1] was run?
Answer: Its Kd is 27 µM.

Question: With GPTQSWQGRCGGIGYSGPTVCASGTTCQVLTPYWSECLPGAS (designed binder) [Her3-Fc_CBD1 displayed on M13 phage] as the binder, how does the ELISA (Her3-Fc) read?
Answer: Its ELISA is 1.7.

Question: And the s/n Ratio (Her3-Fc)?
Answer: The s/n Ratio was 20.2.

B3: Her3-Fc_ChTx1 displayed on M13 phage (designed binder)
chain: VSCTTSKECWSVCQRLHNTSWGEQCVTKFCKCEE
notes: as for B2
Question: For B3, which ELISA (Her3-Fc) is on record?
Answer: The ELISA was 1.7.

Question: What about the s/n Ratio (Her3-Fc) of the same binder?
Answer: Its s/n Ratio is 22.6.

Question: VSCTTSKECWSVCQRLHNTSWGEQCVTKFCKCEE (designed binder, Charybdotoxin scaffold) [Her3-Fc_ChTx1] was tested. Which Kd (Her3-Fc Avi-tag) did it give?
Answer: The Kd was > 10 µM.

Question: For GCGWTLAHCKQDSDCLAGCVCQPRWVCG (designed binder) [N2L-EET-29], which Kd [7] is on record?
Answer: Its Kd is 102 µM.

Question: With GCGWTLWHCKQDSDCLAGCVCEPIWWCG (designed binder) [N2L-EET-03] as the binder, how does the Kd [7] read?
Answer: Its Kd is 43.7 µM.

Question: With GCHRPWWQLWGLCKQDSDCLAGCVCGPNGFCG (designed binder) [HtrA1_EET76] as the binder, how does the Kd (HtrA1) read?
Answer: The Kd was 9.5 µM.

Question: GCRPRWGGWHCKQDSDCLAGCVCGPNGFCG (designed binder) [N2N-EET-57] was tested. Which Kd [3] did it give?
Answer: Its Kd is 132 µM.

Question: Which Kd [3] does the source give for GCRPRFKGWTCKQDSDCLAGCVCGPNGFCG (designed binder) [N2N-EET-n3] here?
Answer: The Kd was 180 µM.

Question: How did the Kd [3] turn out when GCMPRYGGWHCKQDSDCLAGCVCGPNGFCG (designed binder) [N2N-EET-63] was run?
Answer: Its Kd is 166 µM.

Question: GCIKSHLWCDPRKDCEAGCICEVWIQCG (designed binder) [N2L.EET31.43.75] was tested. Which Kd [2] did it give?
Answer: The Kd was 0.41 µM.

Question: Which Kd (HtrA1) does the source give for WIPCISAALGCSCKNKVCYIFSKHLCGESCV (designed binder) [HtrA1_CirA65] here?
Answer: The Kd was 2.7 µM.

Question: With GCIRSHVWCKQDSDCEAGCICEIWIQCG (designed binder) [N2L.EET31.43.43] as the binder, how does the Kd [2] read?
Answer: Its Kd is 3.5 µM.

Question: For ACKGVFDACTWKNWRQSRSRECCPNAVCSDKHKWCKWKL (designed binder, Huwentoxin scaffold) [HtrA1_HwTx69], which Kd (HtrA1) is on record?
Answer: The Kd was 3.7 µM.
